B1: DotL(590–783)–DotN–IcmSW–LvgA with the (His)10-MBP tag on DotL(590–783) (complex)
chain 1: VEPPPDDYLMKLQKQLASFQSILESGDLSINKAVENEEITLISKALKESTIVEPIERGVAALIAFHGQNEPEPVEDIVEEEVEGALTIFSKLRIDPNAPPILVADKEVFSEPLLPINETRNQMITIERLAGAKDKYAGTVANELIKDFQIATSYPPEERDVIDVQELTGIIRDLSAKISAEREKANKKAAEELT
chain 2: MADNQQRCELKLIASPGSWRLYSARKIDERFKSYEQKIFQRDRYTCQFCGFQARLYQDIVNLDGDYTNNRLSNLVTACCFCAQCFFVESVGVGGYGGGTLIYLPELTQAELNSLCHVLFCAITNDTGYKSSAQNIYRSFKFRSQIVEEKFGEGTSDPAIFGQLMIDSGVNSEEIREKLFKNIRLLPSRAKFRKQIEKWAASALEEIAD
chain 3: MERDISKCMAKIAASMNAKFYLNDRFVSFDEVFSETGLLPAIAKRADQLCSLCLGYGLGATYDESEGALLGIRVVFDEVTPNVLRLLCMTDVMNELIQGGPSRDYTPLDELMYD
chain 4: MPDLSHEASAKYWFEYLDPMIYRVITFMESVENWTLDGNPELEEAMKQLGQELDDIEKIDLGLLAEEDKFIRIVGNIKSGRGLRLLQAIDTVHPGSASRVLIHAEETSLSSSDPAGFFLKRNIVFERLRLLSRVFCQYRLKLVLRALEGDE
chain 5: MADGDIEIKAGFVDTDLDDRKLTMIDDLNNPLAIVERVYLIWWHWADFHLHVISPHIDTITPAIVIEPELIPGSNDHEFVYSIHDSGSKLSTSKSQDMFSAGMSMCKLFYTIEKMVYILVERLKSGGVSMEAEVQIAFAGHEIAQRKAFESIINLPYNVVVTNFDPGIWGEKYLQNVKRLADKGYGYPPESPRKIYMHPVSSGTTARK
B2: SetA (natural protein)
chain: MYKIYSYLGWRIDMKTENLPQAGQEAQIDKKIHFIWVGHIMPQKNIQVVSEWAEKNPGYETIIWVDKKIAPAKELDLFILDMKSKGITVKDINEEGVCRDSIRHELDQESPNYGMVSDMLRLNILAAEGGIYLDSDILCSAPFPDEIYAPFGFLLSPWSQGANNTLCNDIILCSKGNQIIQQLADAIEQSYIARDSFEFTHEYASMKETKGERIAKTLGVTGPGFLFHQLKKMGILNDKSEMEAIHWELQDQRYLIDGSVKEPDYFYVPQNNTNDASWVPSIKRPGIENMSFQERLENAVQLIAFDIQKTGLFNLDHYANELKVKQNSWCIAAETSPELKPDSYLLIRPRDKTGEWTLYYVDEDKKLNPVTLPVIKGAIKLSEVSDPLRKFHTLLSQVSDPVNPTAHELKQIGRALIELKPRQDEWHCKNKWSGAEEIAQELWQRITSNETLRAQIKQCFTQFESLKPRVAELGLTRASGAGTEVEAHESTVKEQEIISQNTVGEEGTKEKNSVQLASENSSDEKIKTAHDLIDEIIQDVIQLDGKLGLLGGNTRQLEDGRVINIPNGAAMIFDDYKKYKQGELTAESALESMIKIAKLSNQLNRHTFFNQRQPETGQFYKKVAAIDLQTTIAAEYDNNHGLRI

The target in experiment [1] is VpdB (L. pneumophila, UniProt Q5ZW60 1-598). Nature of the experiment: BLI.
Experiment [2] addresses B1. Nature of the experiment: BLI. On the technique in general: Biolayer interferometry detects binding as a change in optical thickness at a sensor tip.

Broadly, the Kd is the equilibrium constant for the complex coming apart. Read a high Kd as lower affinity. The term koff denotes the first-order rate constant of dissociation. High values mean fast dissociation, low ones slow dissociation. The kon is a measure of how fast the partners come together. Lower therefore signals slower complex formation. In experiment [1], B1 yielded a Kd of roughly 0.332 µM, a koff of 0.0039 s⁻¹ and a kon of 11800 M⁻¹ s⁻¹.
In experiment [2], B2 returned a Kd of 1.6 µM, a koff of 0.0203 s⁻¹ and a kon of 13100 M⁻¹ s⁻¹.

The values above are taken from article PMC6497169 (Nature microbiology, 2017).
